Measurements reported in patent US20090286252A1 (NEW YORK UNIVERSITY, published 2009).

Assays:
[1] = target: full length cTRα (chicken) (UniProt P04625); test: cell-based or functional assay
LexA-hRARα LBD = target: T1, LexA-hRARα LBD (human, UniProt P0A7C2 1-202; P10276 154-462, limits assumed); test: yeast two-hybrid (data not shown)
T1 construct: also called LexA-RAR
T1 sequence (looked up): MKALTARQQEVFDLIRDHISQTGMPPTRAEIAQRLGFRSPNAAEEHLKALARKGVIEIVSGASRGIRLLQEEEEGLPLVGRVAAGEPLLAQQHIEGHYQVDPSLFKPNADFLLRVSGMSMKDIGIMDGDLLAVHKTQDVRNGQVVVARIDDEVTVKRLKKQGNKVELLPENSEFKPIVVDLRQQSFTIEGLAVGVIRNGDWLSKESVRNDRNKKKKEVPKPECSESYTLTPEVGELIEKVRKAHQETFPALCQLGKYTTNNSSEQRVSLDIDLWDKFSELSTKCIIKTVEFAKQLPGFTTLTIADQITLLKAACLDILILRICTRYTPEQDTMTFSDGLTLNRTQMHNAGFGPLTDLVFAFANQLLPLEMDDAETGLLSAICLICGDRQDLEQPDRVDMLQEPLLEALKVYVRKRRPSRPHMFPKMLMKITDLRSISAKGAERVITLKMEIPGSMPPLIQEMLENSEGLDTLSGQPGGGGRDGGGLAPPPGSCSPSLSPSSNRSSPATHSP
Description: (§1) The following receptor baits were used: LexA-cTRα LBD, LexA-hTRβ LBD, LexA-hRARα LBD, LexA-hRXRα LBD, and LexA-hGR LBD. […] Yeast cells harboring appropriate plasmids were grown in selective media with Gal/Raf in the presence or absence of cognate ligand (1 μM T3 for TR, all trans or 9-cis RA for RAR, 9-cis RA for RXR, and 10 μM deoxycorticosterone for GR) overnight before β-galactosidase activity was assayed using o-Nitrophenyl β-D-Galactopyranoside as the substrate. β-galactosidase units are expressed as (O.D. 420 nm×1000)/(minutes of incubation×O.D. 600 nm of yeast suspension).

LexA-hGR LBD = target: T2, LexA-hGR LBD (human, UniProt P0A7C2 1-202; P04150 485-777, limits assumed); test: yeast two-hybrid (data not shown)
T2 construct: also called LexA-GR
T2 sequence (looked up): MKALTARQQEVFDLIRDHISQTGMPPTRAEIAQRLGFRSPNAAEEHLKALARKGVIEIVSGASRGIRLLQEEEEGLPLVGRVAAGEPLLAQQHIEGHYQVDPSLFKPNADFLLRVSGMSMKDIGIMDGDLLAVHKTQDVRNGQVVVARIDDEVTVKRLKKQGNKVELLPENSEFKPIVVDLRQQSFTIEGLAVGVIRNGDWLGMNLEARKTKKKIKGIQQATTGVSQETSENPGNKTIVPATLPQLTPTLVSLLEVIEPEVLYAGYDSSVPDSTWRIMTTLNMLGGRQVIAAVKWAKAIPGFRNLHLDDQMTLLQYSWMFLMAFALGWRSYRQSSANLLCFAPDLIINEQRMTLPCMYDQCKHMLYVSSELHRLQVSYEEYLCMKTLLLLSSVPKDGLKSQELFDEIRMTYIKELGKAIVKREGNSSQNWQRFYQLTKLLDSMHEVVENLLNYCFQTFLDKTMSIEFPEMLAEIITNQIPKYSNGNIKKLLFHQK
Description: as §1

LexA-cTRα LBD = target: T3, LexA-cTRα LBD (chicken, UniProt P0A7C2 1-202; P04625 120-408, limits assumed); test: yeast two-hybrid, β-galactosidase (FIG. 8B)
T3 construct: also called LexA-TR LBD; LexA-TR
T3 sequence (looked up): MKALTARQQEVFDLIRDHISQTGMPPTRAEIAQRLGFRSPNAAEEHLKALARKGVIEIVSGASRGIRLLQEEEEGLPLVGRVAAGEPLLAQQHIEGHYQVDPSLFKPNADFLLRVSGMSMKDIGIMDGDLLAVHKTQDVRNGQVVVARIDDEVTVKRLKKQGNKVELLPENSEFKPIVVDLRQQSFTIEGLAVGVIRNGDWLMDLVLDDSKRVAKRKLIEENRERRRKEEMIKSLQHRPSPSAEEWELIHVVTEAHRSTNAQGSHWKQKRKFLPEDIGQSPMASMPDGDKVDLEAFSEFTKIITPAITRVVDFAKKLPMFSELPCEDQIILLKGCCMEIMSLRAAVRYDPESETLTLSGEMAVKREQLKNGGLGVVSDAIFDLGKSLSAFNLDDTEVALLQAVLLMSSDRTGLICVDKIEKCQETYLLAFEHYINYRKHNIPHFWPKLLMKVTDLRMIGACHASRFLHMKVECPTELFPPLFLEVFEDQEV
Description: as §1

LexA-hRXRα LBD = target: T4, LexA-hRXRα LBD (human, UniProt P0A7C2 1-202; P19793 198-462, limits assumed); test: yeast two-hybrid, β-galactosidase (FIG. 8B)
T4 construct: also called LexA-RXR
T4 sequence (looked up): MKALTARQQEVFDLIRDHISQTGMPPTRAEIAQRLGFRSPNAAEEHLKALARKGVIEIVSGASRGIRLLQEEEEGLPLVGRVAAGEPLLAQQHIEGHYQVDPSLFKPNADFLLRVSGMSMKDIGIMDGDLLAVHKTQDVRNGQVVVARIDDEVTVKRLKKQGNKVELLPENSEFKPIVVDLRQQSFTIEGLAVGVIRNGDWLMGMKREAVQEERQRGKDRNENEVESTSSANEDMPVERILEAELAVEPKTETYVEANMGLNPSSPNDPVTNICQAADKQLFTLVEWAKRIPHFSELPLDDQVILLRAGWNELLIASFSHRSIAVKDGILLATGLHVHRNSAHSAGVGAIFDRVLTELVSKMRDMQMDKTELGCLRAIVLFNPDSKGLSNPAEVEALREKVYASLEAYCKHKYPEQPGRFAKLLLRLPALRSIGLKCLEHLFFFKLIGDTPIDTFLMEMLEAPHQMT
Description: as §1

B42-cTRα LBD = target: T5, B42-cTRα LBD (chicken, UniProt P04625 120-408); test: yeast two-hybrid (data not shown)
T5 construct: also called B42-TR LBD; LBD of TR (fused with B-42)
T5 sequence (looked up): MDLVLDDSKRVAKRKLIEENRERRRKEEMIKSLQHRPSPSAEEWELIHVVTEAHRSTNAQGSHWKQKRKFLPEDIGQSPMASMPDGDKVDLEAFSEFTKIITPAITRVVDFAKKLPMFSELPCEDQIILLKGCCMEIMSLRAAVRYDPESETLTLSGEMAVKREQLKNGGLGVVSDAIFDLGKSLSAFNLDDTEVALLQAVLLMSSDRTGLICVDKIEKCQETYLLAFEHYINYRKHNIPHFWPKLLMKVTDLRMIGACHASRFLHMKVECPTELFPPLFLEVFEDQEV
Description: as §1

B42-hRARα LBD = target: T6, B42-hRARα LBD (human, UniProt P10276 154-462); test: yeast two-hybrid (data not shown)
T6 construct: also called B42-RAR LBD; LBD of RAR
T6 sequence (looked up): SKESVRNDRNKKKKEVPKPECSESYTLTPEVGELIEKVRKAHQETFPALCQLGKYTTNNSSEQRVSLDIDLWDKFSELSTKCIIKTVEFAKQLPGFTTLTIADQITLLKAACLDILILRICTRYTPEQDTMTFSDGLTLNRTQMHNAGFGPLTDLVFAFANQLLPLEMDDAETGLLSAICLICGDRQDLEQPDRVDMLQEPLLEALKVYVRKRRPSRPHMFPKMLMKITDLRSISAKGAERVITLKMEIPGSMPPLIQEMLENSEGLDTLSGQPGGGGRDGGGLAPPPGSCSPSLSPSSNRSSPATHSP
Description: as §1

B42-hRXRα LBD = target: T7, B42-hRXRα LBD (human, UniProt P19793 198-462); test: yeast two-hybrid (data not shown)
T7 construct: also called B42-RXR LBD; LBD of RXR (fused with B-42)
T7 sequence (looked up): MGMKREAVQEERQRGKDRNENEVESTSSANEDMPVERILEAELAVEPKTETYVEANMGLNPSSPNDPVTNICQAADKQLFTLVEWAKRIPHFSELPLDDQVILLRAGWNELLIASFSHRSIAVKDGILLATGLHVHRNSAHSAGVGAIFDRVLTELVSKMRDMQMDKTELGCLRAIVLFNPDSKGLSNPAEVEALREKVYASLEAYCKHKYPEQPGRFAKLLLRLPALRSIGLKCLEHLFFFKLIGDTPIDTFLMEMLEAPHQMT
Description: as §1

Question: With “NRIF3 (full length) (from UniProt Q13352 1-177)” as the molecule, how does the enhancement of TR-mediated activation of the GH-TRE-tk-CAT reporter in HeLa cells (FIG. 5B) [1] read?
Answer: 3.5 fold

Question: And the enhancement of TR-mediated activation of the IR-ΔMTV-CAT reporter in HeLa cells (FIG. 5A) [1]?
Answer: 2.5 to 3 fold

B1: β3-endonexin short form (EnS) expressed from pJG4-5 (other, not shown: large carriers)
chain: MPVKRSLKLDGLLEENSFDPSKITRKKSVITYSPTTGTCQMSLFASPTSSEEQKHRNGLSNEKRKKLNHPSLTESKESTTKDNDEFMMLLSKVEKLSEEIMEIMQNLSSIQ
notes: Yeast two-hybrid prey; also called pJG4-5/EnS
Question: Does B1 bind (LexA-hRARα LBD)?
Answer: no binding

Question: Does B1 bind (LexA-hGR LBD)?
Answer: no binding

Question: Does B1 bind (LexA-cTRα LBD)?
Answer: no binding

Question: Does B1 bind (LexA-hRXRα LBD)?
Answer: no binding

B2: LexA alone (other, UniProt P0A7C2 1-202, looked up)
chain: MKALTARQQEVFDLIRDHISQTGMPPTRAEIAQRLGFRSPNAAEEHLKALARKGVIEIVSGASRGIRLLQEEEEGLPLVGRVAAGEPLLAQQHIEGHYQVDPSLFKPNADFLLRVSGMSMKDIGIMDGDLLAVHKTQDVRNGQVVVARIDDEVTVKRLKKQGNKVELLPENSEFKPIVVDLRQQSFTIEGLAVGVIRNGDWL
notes: Negative control bait; also called bait LexA alone (negative control)
Question: Does B2 bind (B42-cTRα LBD)?
Answer: no binding

Question: Does B2 bind (B42-hRARα LBD)?
Answer: no binding

Question: Does B2 bind (B42-hRXRα LBD)?
Answer: no binding
